Substitutions are numbered along the chain they refer to. Names may count otherwise.
Key:
[1] = biological target: T1, Biotinylated prolactin receptor BirATag-Ser-PRLR (1-210) (human, UniProt P16471 25-234, biotinylated (BirA tag, biotin added during expression in E. coli)); test: SPR (Biacore); biotinylated BirATag-Ser-PRLR (1-210) amine-coupled to CM5 chip, variant injected at 3.13-50 nM; STDEV 0.035
T1 construct: range 1-210; also called BirA-Ser-PRLR (1-210); not shown: BirA tag (biotin acceptor tag)
T1 sequence: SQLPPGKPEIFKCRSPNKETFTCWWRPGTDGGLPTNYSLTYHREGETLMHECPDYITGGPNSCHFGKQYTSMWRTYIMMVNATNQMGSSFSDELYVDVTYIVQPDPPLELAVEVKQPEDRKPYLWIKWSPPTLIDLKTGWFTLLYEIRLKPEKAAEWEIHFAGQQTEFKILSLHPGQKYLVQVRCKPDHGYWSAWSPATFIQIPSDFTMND
Method: (§1) Biotinylated prolactin receptor BirATag-Ser-PRLR (1-210) was diluted to 20 μg/ml in 10 mM sodium acetate pH 4.0 (Biacore BR-1003-49) and immobilized on a CM5 chip (Biacore BR-1006-68) with the immobilization reagents 1-ethyl-3-(3-dimethylaminopropyl) carbodiimide hydrochloride (EDC), N-hydroxysuccinimide (NHS) and 1.0 M ethanolamine-HCl pH 8.5 (Biacore BR1000-50). The immobilization level was 1500 RU. The PRL variants prepared as described in Example 5 were diluted to a series of concentrations as following: 3.13/6.25/12.5/25/50 nM and run through the PRLR immobilized chip using HBS-EP (10 mM HEPES pH 7.4; 150 mM NaCl; 3 mM EDTA; 0.005% v/v Tween-20) as the running buffer under the following conditions: […]

[2] = biological target: T2, ECD-PRL-R, soluble extracellular domain of the prolactin receptor, Ser-PRLR(1-210) (human, UniProt P16471 25-234); test: HX-MS, 6 uM vPRL with or without 12 uM ECD-PRL-R
T2 construct: range 1-210
T2 sequence: T1 sequence
Method: Amide hydrogen/deuterium exchange (HX) was initiated by a 10-fold dilution of vPRL in the presence or absence of ECD-PRL-R into a deuterated buffer (i.e. 20 mM Tris, 150 mM NaCl, 99% D₂O, pH 7.4 (uncorrected value)). Non-deuterated controls were prepared by dilution into an identical protiated buffer. All HX reactions were carried out at 30° C. and contained 6 μM vPRL variant in the absence or presence of 12 μM ECD-PRL-R. At appropriate time intervals, aliquots of the HX reaction were quenched by addition of an equal volume of ice-cold quenching buffer (1.25 M Tris(2-carboxyethyl)phosphine hydrochloride, adjusted to pH 2.0 using NaOH) resulting in a final pH of 2.5 (uncorrected value). Quenched samples were immediately frozen in liquid N₂ and stored at −80° C.
The samples were run on a cooled high pressure liquid chromatography-mass spectrometry system for rapid desalting and mass analysis as described (Rand et al. J. Biol. Chem. 281, 23018 (2006)).

[3] = biological target: T1, Biotinylated prolactin receptor …; test: SPR (Biacore); biotinylated BirATag-Ser-PRLR (1-210) amine-coupled to CM5 chip, variant injected at 3.13-50 nM; STDEV 0.021
Method: as §1

[4] = biological target: T1, Biotinylated prolactin receptor …; test: SPR (Biacore); biotinylated BirATag-Ser-PRLR (1-210) amine-coupled to CM5 chip, variant injected at 3.13-50 nM; STDEV 0.085
Method: as §1

[5] = biological target: T1, Biotinylated prolactin receptor …; test: SPR (Biacore); biotinylated BirATag-Ser-PRLR (1-210) amine-coupled to CM5 chip, variant injected at 3.13-50 nM; STDEV 0.049
Method: as §1

[6] = biological target: T1, Biotinylated prolactin receptor …; test: SPR (Biacore); biotinylated BirATag-Ser-PRLR (1-210) amine-coupled to CM5 chip, variant injected at 3.13-50 nM; STDEV 0.0636
Method: as §1

[7] = biological target: T1, Biotinylated prolactin receptor …; test: SPR (Biacore); biotinylated BirATag-Ser-PRLR (1-210) amine-coupled to CM5 chip, variant injected at 3.13-50 nM; STDEV 0.2546
Method: as §1

[8] = biological target: T1, Biotinylated prolactin receptor …; test: SPR (Biacore); biotinylated BirATag-Ser-PRLR (1-210) amine-coupled to CM5 chip, variant injected at 3.13-50 nM; STDEV 0.028
Method: as §1

[9] = biological target: T1, Biotinylated prolactin receptor …; test: SPR (Biacore); biotinylated BirATag-Ser-PRLR (1-210) amine-coupled to CM5 chip, variant injected at 3.13-50 nM; STDEV 0.18
Method: as §1

[10] = biological target: T1, Biotinylated prolactin receptor …; test: SPR (Biacore); biotinylated BirATag-Ser-PRLR (1-210) amine-coupled to CM5 chip, variant injected at 3.13-50 nM; STDEV 0.064
Method: as §1

[11] = biological target: T1, Biotinylated prolactin receptor …; test: SPR (Biacore); biotinylated BirATag-Ser-PRLR (1-210) amine-coupled to CM5 chip, variant injected at 3.13-50 nM; STDEV 0.1273
Method: as §1

[12] = biological target: T1, Biotinylated prolactin receptor …; test: SPR (Biacore); biotinylated BirATag-Ser-PRLR (1-210) amine-coupled to CM5 chip, variant injected at 3.13-50 nM; STDEV 0.56
Method: as §1

[13] = biological target: T1, Biotinylated prolactin receptor …; test: SPR (Biacore); biotinylated BirATag-Ser-PRLR (1-210) amine-coupled to CM5 chip, variant injected at 3.13-50 nM; STDEV 0.057
Method: as §1

[14] = biological target: T1, Biotinylated prolactin receptor …; test: SPR (Biacore); biotinylated BirATag-Ser-PRLR (1-210) amine-coupled to CM5 chip, variant injected at 3.13-50 nM; STDEV 0.51
Method: as §1

[15] = biological target: T1, Biotinylated prolactin receptor …; test: SPR (Biacore); biotinylated BirATag-Ser-PRLR (1-210) amine-coupled to CM5 chip, variant injected at 3.13-50 nM; STDEV 0.11
Method: as §1

[16] = biological target: T1, Biotinylated prolactin receptor …; test: SPR (Biacore); biotinylated BirATag-Ser-PRLR (1-210) amine-coupled to CM5 chip, variant injected at 3.13-50 nM; STDEV 0.22
Method: as §1

[17] = biological target: T1, Biotinylated prolactin receptor …; test: SPR (Biacore); biotinylated BirATag-Ser-PRLR (1-210) amine-coupled to CM5 chip, variant injected at 3.13-50 nM; STDEV 0.3606
Method: as §1

B1: PRL S61A, D68N, G71A, Q73A, G129R, K190R (ligand)
chain: LPICPGGAARCQVTLRDLFDRAVVLSHYIHNLSSEMFSEFDKRYTHGRGFITKAINSCHTASLATPENKEAAAQMNQKDFLSLIVSILRSWNEPLYHLVTEVRGMQEAPEAILSKAVEIEEQTKRLLERMELIVSQVHPETKENEIYPVWSGLPSLQMADEESRLSAYYNLLHCLRRDSHKIDNYLKLLRCRIIHNNNC
notes: Printed without the prefix Ser-. 'G71A' is copied as printed
Kd [1]: 1.7 nM

B2: vPRL: variant of PRL with amino acid residues 1-11 deleted and the mutations Q12S and G129R (ligand)
chain: SVTLRDLFDRAVVLSHYIHNLSSEMFSEFDKRYTHGRGFITKAINSCHTSSLATPEDKEQAQQMNQKDFLSLIVSILRSWNEPLYHLVTEVRGMQEAPEAILSKAVEIEEQTKRLLERMELIVSQVHPETKENEIYPVWSGLPSLQMADEESRLSAYYNLLHCLRRDSHKIDNYLKLLKCRIIHNNNC
binding result [2]: binds

B3: Ser-PRL D68N, E70K, Q73L, G129R, K190R (ligand)
chain: SLPICPGGAARCQVTLRDLFDRAVVLSHYIHNLSSEMFSEFDKRYTHGRGFITKAINSCHTSSLATPENKKQALQMNQKDFLSLIVSILRSWNEPLYHLVTEVRGMQEAPEAILSKAVEIEEQTKRLLERMELIVSQVHPETKENEIYPVWSGLPSLQMADEESRLSAYYNLLHCLRRDSHKIDNYLKLLRCRIIHNNNC
Kd [3]: 1.2 nM

B4: Ser-PRL S61A, D68N, Q73L, G129R, K190R (ligand)
chain: B3 chain with S62A, K71E
Kd [4]: 1.1 nM

B5: Ser-PRL S61A, Q73L, G129R, K190R (ligand)
chain: B3 chain with S62A, N69D, K71E
Kd [5]: 1.3 nM

B6: Ser-PRL S38I, S61A, D68N, Q73L, G129R, K190R (ligand)
chain: B3 chain with S39I, S62A, K71E
Kd [6]: 0.3 nM

B7: Ser-PRL N31E, G129R, K190R (ligand)
chain: B3 chain with N32E, N69D, K71E, L74Q
Kd [7]: 2.7 nM

B8: Ser-PRL S61A, G129R, K190R (ligand)
chain: B3 chain with S62A, N69D, K71E, L74Q
Kd [8]: 2.4 nM

B9: Ser-PRL S38I, D68N, G129R, I182V (ligand)
chain: B3 chain with S39I, K71E, L74Q, I183V, R191K
Kd [9]: 2.8 nM

B10: Ser-PRL S33A Q73L G129R K190R (ligand)
chain: B3 chain with S34A, N69D, K71E
Kd [10]: 5 nM

B11: Ser-PRL S61A, D68N, G129R, K190R (ligand)
chain: B3 chain with S62A, K71E, L74Q
Kd [11]: 2.3 nM

B12: Ser-PRL D68N, G129R (ligand)
chain: B3 chain with K71E, L74Q, R191K
Kd [12]: 4.9 nM

B13: Ser-PRL D68N, Q73L, G129R, K190R (ligand)
chain: B3 chain with K71E
Kd [13]: 1.2 nM

B14: Ser-PRL S33A, Q73L, M75T, N76S, F80L, G129R, K190R (ligand)
chain: B3 chain with S34A, N69D, K71E, M76T, N77S, F81L
Kd [14]: 3.3 nM

B15: Ser-PRL G129R, K190R (ligand)
chain: B3 chain with N69D, K71E, L74Q
Kd [15]: 5.1 nM

B16: Ser-PRL D68N, G129R, K190R (ligand)
chain: B3 chain with K71E, L74Q
Kd [16]: 2.8 nM

B17: Ser-PRL N31R, G129R, K190R (ligand)
chain: B3 chain with N32R, N69D, K71E, L74Q
Kd [17]: 2.01 nM

Reference: patent US20100249029A1 (Novo Nordisk, published 2010)
